According to patent US20020004485A1 (University of California, published 2002):

Tests used:
[1] = molecular target: atypical MC receptor of Cos-7 cells; assay: cell-based or functional assay
[2] = molecular target: MC receptor endogenous to Xenopus laevis melanophores (Xenopus laevis); assay: cell-based or functional assay

EC50 of α-MSH for cAMP production in Cos-7 cells [1]: ~80 nM
EC50 of α-MSH alone in frog melanophores [2]: 0.03 nM
Binder: SYSMEHFRWGKPV (ligand, UniProt P01189 138-150, looked up) [α-melanocyte stimulating hormone]
